Data on 25 sequences can be found in the supplement of paper PMC9732359.

± gives the uncertainty stated by the source.

A short description of this data set: protein stability index of a GFP-peptide fusion (yeast GPS) (PSI 1-4); higher = more stable; sorted into four equal gates, so the index is relative within each strain. Put shortly:
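Peptides tiling yeast proteins in 17-residue segments were fused downstream of GFP, with Cherry expressed from the same plasmid. As a pooled library in yeast, mid-log cultures grown in leucine-free medium were sorted into four equal gates by GFP/Cherry fluorescence ratio. Gate plasmids were PCR-amplified and Illumina-sequenced, and barcodes linked reads to strains. Each peptide received a protein stability index equal to the sum of each gate's read frequency times its gate number.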

For VKSKIQDKEGIPPDQQR [RPS31], the protein stability index is, setting by setting: (doa10∆) 3.08 ± 0.076; (pdr5∆) 3.48 ± 0.075; (san1∆) 3.41 ± 0.051; (ubr1∆) 3.44 ± 0.061.
As for PDLNIDRNNSTNQIFQS [SIN4], the protein stability index reads like this: (doa10∆) 3.1 ± 0.29; (san1∆) 2.7 ± 0.21; (ubr1∆) 2.19 ± 0.15.
On to SAASKKKKNKNKGKKKR [SRP21], for which the protein stability index turned out to be 3.22 ± 0.081 (doa10∆), 3.04 ± 0.1 (pdr5∆), 3.11 ± 0.056 (san1∆) and 3.22 ± 0.056 (ubr1∆).
As for RASKLKIQASDVNIIGK [RPO31], the protein stability index by setting is: (pdr5∆) 3.04 ± 0.17; (san1∆) 2.7 ± 0.24.
As to SLFQLSKLGKNLQTVHF [GRR1], the protein stability index came to 2.2 ± 0.047 (doa10∆), 2.22 ± 0.051 (pdr5∆), 1.96 ± 0.06 (san1∆) and 2.43 ± 0.038 (ubr1∆).
EMNLHVPQSEETRAELS [RPO21]: the protein stability index (doa10∆) stood at 3.17 ± 0.2, the protein stability index (pdr5∆) was found to be 3.31 ± 0.092, the protein stability index (san1∆) was 3.1 ± 0.1 and the protein stability index (ubr1∆) is 3.15 ± 0.11.
The like results for PDYYMIIKYPVAFDNIN [SNF2] were, in that order, 2.78 ± 0.14, 2.08 ± 0.12, 1.97 ± 0.12 and 2.44 ± 0.15.
On the same counts, the results for FGNIMDNLLEMSDHSLD [RRP6] are 2.42 ± 0.074, 2.58 ± 0.065, 1.89 ± 0.1 and 3.27 ± 0.05.
On the same counts, the results for LNSNIRAGVTIPSIPNP [SNF5] are 2.57 ± 0.075, 2.72 ± 0.062, 2.5 ± 0.062 and 2.72 ± 0.049.
SSTIDAPAFHTSGKVEL [SRB8]: the protein stability index reads like this: (doa10∆) 2.9 ± 0.28; (san1∆) 2.94 ± 0.18; (ubr1∆) 2.87 ± 0.082.
In the case of IAACTGVPDDKWEQTYK [FAS1], the protein stability index is, setting by setting: (doa10∆) 1.63 ± 0.15; (pdr5∆) 1.21 ± 0.23; (ubr1∆) 1.31 ± 0.29.
As for LCTLNDSKGSLYSVKFA [YGL100W/SEH1], the protein stability index came to 2.94 ± 0.13 (doa10∆), 2.84 ± 0.093 (pdr5∆), 2.62 ± 0.058 (san1∆) and 2.49 ± 0.071 (ubr1∆).
For the sequence ELYSFQQLVDSEKRLDH [SNF12], the protein stability index reads like this: (doa10∆) 1.35 ± 0.095; (pdr5∆) 2.26 ± 0.074; (san1∆) 2.26 ± 0.11; (ubr1∆) 1.57 ± 0.053.
As for SPFLMGHPMTKSVYETP [SEC65], the protein stability index is, setting by setting: (doa10∆) 2.28 ± 0.067; (pdr5∆) 2.55 ± 0.068; (san1∆) 2.83 ± 0.083; (ubr1∆) 2.68 ± 0.052.
The like results for KGYVFKISGGNDKQGFP [RPS6A] were, in that order, 2.62 ± 0.068, 2.89 ± 0.071, 2.99 ± 0.052 and 3 ± 0.054.
With ESDNYRLLPNGSNKAQI [YML031W/NDC1], the protein stability index is, setting by setting: (doa10∆) 3.08 ± 0.061; (pdr5∆) 3.18 ± 0.067; (san1∆) 2.78 ± 0.047; (ubr1∆) 2.95 ± 0.035.
On the same counts, the results for SMNKELIAIVSKLLQTT [NUT1] are 1.88 ± 0.057, 1.79 ± 0.096, 2.28 ± 0.14 and 1.4 ± 0.083.
The sequence FHGTSTKANDKNESATI [FAS2] gave a protein stability index (doa10∆) of 3.06 ± 0.12, a protein stability index (pdr5∆) of 2.8 ± 0.094, a protein stability index (san1∆) of 2.95 ± 0.075 and a protein stability index (ubr1∆) of 2.91 ± 0.1.
Consider IKNLGLPSDRCSKAMGD [RPP1], for which the protein stability index reads like this: (doa10∆) 3.36 ± 0.19; (pdr5∆) 3.32 ± 0.13; (san1∆) 3.25 ± 0.23.
Regarding AYVAIEQVKDDGTSTEK [RPN8], the protein stability index was found to be 2.48 ± 0.16 (doa10∆), 1.73 ± 0.13 (pdr5∆), 3.23 ± 0.15 (san1∆) and 2.64 ± 0.085 (ubr1∆).
In turn, FTNPSIVKVFHGAFMDI [RRP6] displayed a protein stability index (doa10∆) of 1.16 ± 0.084, a protein stability index (pdr5∆) of 1.57 ± 0.062, a protein stability index (san1∆) of 1.63 ± 0.11 and a protein stability index (ubr1∆) of 1.38 ± 0.049.
Regarding RVGVKLKFNSTEYRGTL [SMX3], the protein stability index amounted to 3.18 ± 0.11 (doa10∆), 3.17 ± 0.07 (pdr5∆), 2.87 ± 0.09 (san1∆) and 3.02 ± 0.094 (ubr1∆).
The like results for IVPSMTHLEIEPFTILG [RET1] were, in that order, 1.49 ± 0.037, 2.05 ± 0.055, 2.29 ± 0.1 and 2.27 ± 0.035.
On the same counts, the results for ADRNDDDEGSFAQENSE [SRB6] are 3.08 ± 0.11, 3.22 ± 0.13, 2.6 ± 0.17 and 3.22 ± 0.12.
As to SASLKKIQQHNTILNSS [BRR2], the protein stability index is 2.65 ± 0.052 (doa10∆), 2.93 ± 0.055 (pdr5∆), 2.79 ± 0.032 (san1∆) and 2.81 ± 0.041 (ubr1∆).
